Consider 22 substances from patent US20230192789A1, “STRUCTURALLY-STABILIZED AND HDMX-SELECTIVE P53 PEPTIDES AND USES THEREOF” (Dana-Farber Cancer Institute, Inc., priority 2020, published 2023).

Bridges are numbered along the chain shown (N, C = ends). Where no end group is shown, it is not given here. [ ]: non-standard residue; d: D form. The star is where a group is joined. Biotin = O=C1N[C@H]2[C@H](CS[C@H]2CCCCC(=O)*)N1; R8 = C=CCCCCCC[C@@](C)(N)C(=O)O; Cba = N[C@@H](CC1CCC1)C(=O)O; S5 = C=CCCC[C@](C)(N)C(=O)O

For the assay, the target named is T1, recombinant HDMX (amino acids 1-490 of SEQ ID NO:104) (Homo sapiens, UniProt O15151).
T1 construct: thioredoxin (N, cleaved yes); S tag (N, cleaved yes); hexahistidine (N, cleaved yes); made in house; host or cells: E. coli (inferred: pET32-LIC vector, handled as described for HDM2 in BL21(DE3))
T1 sequence (O15151 1-490): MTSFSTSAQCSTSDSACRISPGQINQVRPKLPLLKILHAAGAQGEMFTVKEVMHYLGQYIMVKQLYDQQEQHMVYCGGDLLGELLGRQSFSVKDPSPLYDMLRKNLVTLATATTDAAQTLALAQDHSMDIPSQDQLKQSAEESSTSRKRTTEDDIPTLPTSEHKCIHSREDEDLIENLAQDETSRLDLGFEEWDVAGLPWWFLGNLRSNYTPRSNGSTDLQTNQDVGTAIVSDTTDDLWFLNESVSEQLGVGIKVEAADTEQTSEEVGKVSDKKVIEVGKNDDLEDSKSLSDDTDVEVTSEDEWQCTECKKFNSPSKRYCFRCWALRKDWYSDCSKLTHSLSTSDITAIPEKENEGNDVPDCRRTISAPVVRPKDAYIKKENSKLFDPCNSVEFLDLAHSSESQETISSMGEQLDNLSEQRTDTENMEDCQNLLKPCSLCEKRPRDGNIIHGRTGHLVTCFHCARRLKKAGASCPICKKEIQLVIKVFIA
The experiment in a line: Competitive streptavidin pull-down of biotinylated peptides with 1:1 recombinant HDM2/HDMX mixture, HDMX western. In kind it is binding. The conditions noted are these: biotinylated stapled peptide, 1:1 mixture of recombinant HDM2 and HDMX.

For “ATSP-7041 B26Q (Biotin-LTF[R8]EYWAQQ[S5]SAA-NH2; staple 4-11; SMILES CC(C)C[C@H](NC(=O)CCCC[C@@H]1SC[C@@H]2NC(=O)N[C@@H]21)C(=O)N[C@H](C(=O)N[C@@H](Cc1ccccc1)C(=O)N[C@]1(C)CCCCCCC=CCCC[C@@](C)(C(=O)N[C@@H](CO)C(=O)N[C@@H](C)C(=O)N[C@@H](C)C(N)=O)NC(=O)[C@H](CCC(N)=O)NC(=O)[C@H](CCC(N)=O)NC(=O)[C@H](C)NC(=O)[C@H](Cc2c[nH]c3ccccc23)NC(=O)[C@H](Cc2ccc(O)cc2)NC(=O)[C@H](CCC(=O)O)NC1=O)[C@@H](C)O)”, the “HDMX versus HDM2 binding selectivity” value is on record as “HDMX selectivity over HDM2”.

In the case of “ATSP-7041 B26S (Biotin-LTF[R8]EYWAQS[S5]SAA-NH2; staple 4-11; SMILES CC(C)C[C@H](NC(=O)CCCC[C@@H]1SC[C@@H]2NC(=O)N[C@@H]21)C(=O)N[C@H](C(=O)N[C@@H](Cc1ccccc1)C(=O)N[C@]1(C)CCCCCCC=CCCC[C@@](C)(C(=O)N[C@@H](CO)C(=O)N[C@@H](C)C(=O)N[C@@H](C)C(N)=O)NC(=O)[C@H](CO)NC(=O)[C@H](CCC(N)=O)NC(=O)[C@H](C)NC(=O)[C@H](Cc2c[nH]c3ccccc23)NC(=O)[C@H](Cc2ccc(O)cc2)NC(=O)[C@H](CCC(=O)O)NC1=O)[C@@H](C)O)”, the “HDMX versus HDM2 binding selectivity” value is recorded as “HDMX selectivity over HDM2”. Same read-out and setting: in the case of “ATSP-7041 B26T (Biotin-LTF[R8]EYWAQT[S5]SAA-NH2; staple 4-11; SMILES CC(C)C[C@H](NC(=O)CCCC[C@@H]1SC[C@@H]2NC(=O)N[C@@H]21)C(=O)N[C@H](C(=O)N[C@@H](Cc1ccccc1)C(=O)N[C@]1(C)CCCCCCC=CCCC[C@@](C)(C(=O)N[C@@H](CO)C(=O)N[C@@H](C)C(=O)N[C@@H](C)C(N)=O)NC(=O)[C@H]([C@@H](C)O)NC(=O)[C@H](CCC(N)=O)NC(=O)[C@H](C)NC(=O)[C@H](Cc2c[nH]c3ccccc23)NC(=O)[C@H](Cc2ccc(O)cc2)NC(=O)[C@H](CCC(=O)O)NC1=O)[C@@H](C)O)” it was “HDMX selectivity over HDM2”. On the same count and under the same terms, in the case of “ATSP-7041 B26V (Biotin-LTF[R8]EYWAQV[S5]SAA-NH2; staple 4-11; SMILES CC(C)C[C@H](NC(=O)CCCC[C@@H]1SC[C@@H]2NC(=O)N[C@@H]21)C(=O)N[C@H](C(=O)N[C@@H](Cc1ccccc1)C(=O)N[C@]1(C)CCCCCCC=CCCC[C@@](C)(C(=O)N[C@@H](CO)C(=O)N[C@@H](C)C(=O)N[C@@H](C)C(N)=O)NC(=O)[C@H](C(C)C)NC(=O)[C@H](CCC(N)=O)NC(=O)[C@H](C)NC(=O)[C@H](Cc2c[nH]c3ccccc23)NC(=O)[C@H](Cc2ccc(O)cc2)NC(=O)[C@H](CCC(=O)O)NC1=O)[C@@H](C)O)” it was “HDMX selectivity over HDM2”; in that of “ATSP-7041 B26W (Biotin-LTF[R8]EYWAQW[S5]SAA-NH2; staple 4-11; SMILES CC(C)C[C@H](NC(=O)CCCC[C@@H]1SC[C@@H]2NC(=O)N[C@@H]21)C(=O)N[C@H](C(=O)N[C@@H](Cc1ccccc1)C(=O)N[C@]1(C)CCCCCCC=CCCC[C@@](C)(C(=O)N[C@@H](CO)C(=O)N[C@@H](C)C(=O)N[C@@H](C)C(N)=O)NC(=O)[C@H](Cc2c[nH]c3ccccc23)NC(=O)[C@H](CCC(N)=O)NC(=O)[C@H](C)NC(=O)[C@H](Cc2c[nH]c3ccccc23)NC(=O)[C@H](Cc2ccc(O)cc2)NC(=O)[C@H](CCC(=O)O)NC1=O)[C@@H](C)O)”, “HDMX selectivity over HDM2”. The same measure, in the same setting: in the case of “ATSP-7041 B26Y (Biotin-LTF[R8]EYWAQY[S5]SAA-NH2; staple 4-11; SMILES CC(C)C[C@H](NC(=O)CCCC[C@@H]1SC[C@@H]2NC(=O)N[C@@H]21)C(=O)N[C@H](C(=O)N[C@@H](Cc1ccccc1)C(=O)N[C@]1(C)CCCCCCC=CCCC[C@@](C)(C(=O)N[C@@H](CO)C(=O)N[C@@H](C)C(=O)N[C@@H](C)C(N)=O)NC(=O)[C@H](Cc2ccc(O)cc2)NC(=O)[C@H](CCC(N)=O)NC(=O)[C@H](C)NC(=O)[C@H](Cc2c[nH]c3ccccc23)NC(=O)[C@H](Cc2ccc(O)cc2)NC(=O)[C@H](CCC(=O)O)NC1=O)[C@@H](C)O)” it was “HDMX selectivity over HDM2”. For “LTF8EYWAQBXAAA (Biotin-LTF[R8]EYWAQ[Cba][S5]AAA-NH2; staple 4-11) [ATSP-7041 S28A]”, the “HDMX versus HDM2 binding selectivity” value is “restored dual HDM2/HDMX binding selectivity”. The “HDMX versus HDM2 binding selectivity” value (listed as SEQ ID NO:79) is “dual-selectivity to HDMX and HDM2”. For “LTF8EYWAQBXSAA [ATSP-7041, reference compound]”, the “HDMX versus HDM2 binding selectivity” value was “dual-HDM2/HDMX targeting”. Regarding “LTF8EYWEQBXEAA (LTF[R8]EYWEQ[Cba][S5]EAA-NH2; staple 4-11; not fully specified (N-terminus); printed as LTF8EYWEQBXEAA) [ATSP-7041 A24E/S28E]”, the “HDMX versus HDM2 binding selectivity” value was “restored dual HDM2/HDMX binding selectivity”. In addition, the “HDMX versus HDM2 binding selectivity” value (listed as SEQ ID NO:81) is “dual-selectivity to HDMX and HDM2”. Regarding “LTF8EYWEQBXSAA (LTF[R8]EYWEQ[Cba][S5]SAA-NH2; staple 4-11; not fully specified (N-terminus); printed as LTF8EYWEQBXSAA) [ATSP-7041 A24E]”, the “HDMX versus HDM2 binding selectivity” value is given as “restored dual HDM2/HDMX binding selectivity”. In addition, the “HDMX versus HDM2 binding selectivity” value (listed as SEQ ID NO:77) is “dual-selectivity to HDMX and HDM2”.

“SAH-p53-4 D21A: Formula (I) stapled peptide: [Xaa]w LSQETF, [Xaa]x ALWKLL, [Xaa]y EN (LSQETF[R8]ALWKLL[S5]EN-NH2; staple 7-14; not fully specified (N-terminus))”: the “HDMX versus HDM2 binding selectivity” value is listed as “HDMX selectivity over HDM2”. Also, the “HDMX versus HDM2 binding selectivity” value (listed as SEQ ID NO:8) is listed as “selectivity to HDMX”. Turning to “SAH-p53-4 D21E: Formula (I) stapled peptide: [Xaa]w LSQETF, [Xaa]x ELWKLL, [Xaa]y EN (LSQETF[R8]ELWKLL[S5]EN-NH2; staple 7-14; not fully specified (N-terminus))”, the “HDMX versus HDM2 binding selectivity” value was “dual selectivity to HDMX and HDM2”. Take “SAH-p53-4 D21R: Formula (I) stapled peptide: [Xaa]w LSQETF, [Xaa]x RLWKLL, [Xaa]y EN (LSQETF[R8]RLWKLL[S5]EN-NH2; staple 7-14; not fully specified (N-terminus))”: the “HDMX versus HDM2 binding selectivity” value was “dual selectivity to HDMX and HDM2”.

Consider “SAH-p53-4 E17R: Formula (I) stapled peptide: [Xaa]w LSQRTF, [Xaa]x DLWKLL, [Xaa]y EN (LSQRTF[R8]DLWKLL[S5]EN-NH2; staple 7-14; not fully specified (N-terminus))”, for which the “HDMX versus HDM2 binding selectivity” value is “dual selectivity to HDMX and HDM2”. For “SAH-p53-4 E28R: Formula (I) stapled peptide: [Xaa]w LSQETF, [Xaa]x DLWKLL, [Xaa]y RN (LSQETF[R8]DLWKLL[S5]RN-NH2; staple 7-14; not fully specified (N-terminus))”, the “HDMX versus HDM2 binding selectivity” value is “dual selectivity to HDMX and HDM2”.

Turning to “SAH-p53-4 K24A: Formula (I) stapled peptide: [Xaa]w LSQETF, [Xaa]x DLWALL, [Xaa]y EN (LSQETF[R8]DLWALL[S5]EN-NH2; staple 7-14; not fully specified (N-terminus))”, the “HDMX versus HDM2 binding selectivity” value is listed as “selectivity to HDM2”.

Turning to “SAH-p53-4 K24R: Formula (I) stapled peptide: [Xaa]w LSQETF, [Xaa]x DLWRLL, [Xaa]y EN (LSQETF[R8]DLWRLL[S5]EN-NH2; staple 7-14; not fully specified (N-terminus))”, the “HDMX versus HDM2 binding selectivity” value is “dual selectivity to HDMX and HDM2”.

For the substance “SAH-p53-4 L14A: Formula (I) stapled peptide: [Xaa]w ASQETF, [Xaa]x DLWKLL, [Xaa]y EN (ASQETF[R8]DLWKLL[S5]EN-NH2; staple 7-14; also: biotinylated)”, the “HDMX versus HDM2 binding selectivity” value is “dual selectivity to HDMX and HDM2”.

With “SAH-p53-4 L14E: Formula (I) stapled peptide: [Xaa]w ESQETF, [Xaa]x DLWKLL, [Xaa]y EN (ESQETF[R8]DLWKLL[S5]EN-NH2; staple 7-14; also: biotinylated)”, the “HDMX versus HDM2 binding selectivity” value is given as “selectivity to HDM2”.

Take “SAH-p53-4 L22A: Formula (I) stapled peptide: [Xaa]w LSQETF, [Xaa]x DAWKLL, [Xaa]y EN (LSQETF[R8]DAWKLL[S5]EN-NH2; staple 7-14; also: biotinylated)”: the “HDMX versus HDM2 binding selectivity” value is “dual selectivity to HDMX and HDM2”.

As to “SAH-p53-4 L22E: Formula (I) stapled peptide: [Xaa]w LSQETF, [Xaa]x DEWKLL, [Xaa]y EN (LSQETF[R8]DEWKLL[S5]EN-NH2; staple 7-14; also: biotinylated)”, the “HDMX versus HDM2 binding selectivity” value was “dual selectivity to HDMX and HDM2”.

Consider “SAH-p53-4 L25A: Formula (I) stapled peptide: [Xaa]w LSQETF, [Xaa]x DLWKAL, [Xaa]y EN (LSQETF[R8]DLWKAL[S5]EN-NH2; staple 7-14; also: biotinylated)”, for which the “HDMX versus HDM2 binding selectivity” value is “dual selectivity to HDMX and HDM2”.
